Patent US6001575

molecular target: GRIP (full length, 1112 amino acids, 130 kDa protein) (rat)

GluR1 Clusters (synaptic AMPA receptor clusters in transfected spinal cord neurons) (GluR1 Clusters)	Substance
3.6	myc-tagged GluR1C (C-terminal 50 amino acids of the GluR1 subunit, transfected into neurons) (receptor)
1.2	myc-tagged GluR2C (C-terminal 50 amino acids of the GluR2 subunit, transfected into neurons) (from UniProt P19491) (receptor)
2.9	myc-tagged GluR2C Δ7 (GluR2 C-terminus lacking the last 7 amino acids, transfected into neurons) (from UniProt P19491) (receptor)
